From patent publication US20250145723A1 (MINGHUI PHARMACEUTICAL HANGZHOU, published 2025)
Like-named read-outs stand apart in the source and are kept apart here.

B1: 5115-H0-Fc (Fc fusion)
chain: EVQLVESGGGLVQPGGSLRLSCAASGRTFSSFVMSWFRQAPGKEREFVSAISGSGSRAYYADSVKGRFTISRDNSKNTLYLQMNSLRAEDTAVYYCAANPRRATPDYTQYAYWGQGTQVTVSS
notes: Humanized VHH-Fc; Fc not specified; not shown: Fc
B2: 5115-H1-Fc (Fc fusion)
chain: EVQLVESGGGLVQPGGSLRLSCAASGRTFSSFVMSWFRQAPGKEREFVSAISGSGSRAYYADSVKGRFTISRDNSKNTLYLQMNSLRAEDTAVYYCAANPRRATPDYTQYAYWGQGTLVTVSS
notes: as for B1
B3: 5115-H1-M3-Fc (Fc fusion)
chain: EVQLVESGGGLVQPGGSLRLSCAASGRTFSSFVMSWFRQAPGKEREFVSAISGSGSRARYADSVKGRFTISRDNSKNTLYLQMNSLRAEDTAVYYCAANPRRATPDLTQYAYWGQGTLVTVSS
notes: VHH-Fc; Fc not specified; not shown: Fc
B4: 5115-H1-M10-Fc (Fc fusion)
chain: EVQLVESGGGLVQPGGSLRLSCAASGGTFSSFVMSWFRQAPGKEREFVSAISGSGSRAYYADSVKGRFTISRDNSKNTLYLQMNSLRAEDTAVYYCAANPRRATPGFTQYAYWGQGTLVTVSS
notes: as for B3
B5: 5115-H1-M17-Fc (Fc fusion)
chain: EVQLVESGGGLVQPGGSLRLSCAASGRTFSSFVMSWFRQAPGKEREFVSAISGSGSRSRYADSVKGRFTISRDNSKNTLYLQMNSLRAEDTAVYYCAANPRRATPDLIQYAYWGQGTLVTVSS
notes: as for B3
B6: 5115-H2-Fc (Fc fusion)
chain: EVQLVESGGGLVQPGGSLRLSCAASGRTFSSFVMSWFRQAPGKGREFVSAISGSGSRAYYADSVKGRFTISRDNSKNTLYLQMNSLRAEDTAVYYCAANPRRATPDYTQYAYWGQGTLVTVSS
notes: as for B1
B7: 5115-H3-Fc (Fc fusion)
chain: EVQLVESGGGLVQPGGSLRLSCAASGRTFSSFVMSWFRQAPGKELEFVSAISGSGSRAYYADSVKGRFTISRDNSKNTLYLQMNSLRAEDTAVYYCAANPRRATPDYTQYAYWGQGTLVTVSS
notes: as for B1
B8: 5115-H4-Fc (Fc fusion)
chain: EVQLVESGGGLVQPGGSLRLSCAASGRTFSSFVMSWFRQAPGKGLEFVSAISGSGSRAYYADSVKGRFTISRDNSKNTLYLQMNSLRAEDTAVYYCAANPRRATPDYTQYAYWGQGTLVTVSS
notes: as for B1
B9: 5115-H4-M34-Fc (Fc fusion)
chain: EVQLVESGGGLVQPGGSLRLSCAASGRTFSSFVMAWFRQAPGKGLEFVSAISGSGSRARYADSVKGRFTISRDNSKNTLYLQMNSLRAEDTAVYYCAANPRRATPDLTQYAYWGQGTLVTVSS
notes: as for B3
B10: 5115-H6-Fc (Fc fusion)
chain: EVQLVESGGGLVQPGGSLRLSCAASGRTFSSFVMMWFRQAPGKEREFVSAISGSGSRAYYADSVKGRFTISRDNSKNTLYLQMNSLRAEDTAVYYCAANPRRATPDYTQYAYWGQGTLVTVSS
notes: as for B1
B11: nanobody 5115 (VHH) (VHH)
VHH: EVQLVESGGGLVQAGGSLRLSCAVSGRTFSSFVMGWFRQAPGKEREFVAAISGSGSRANYADSVKGRFTVSRDNANNTVYLQMNSLKPDDTALYYCAANPRRATPDYTQYAYWGQGTQVTVSS
B12: nanobody 5666 (VHH) (VHH)
VHH: EVQLVESGGGLVQAGGSLRLSCAVSGRTFSSYVMGWFRQAPGKERELVAAISGSGSRSNYADSVKGRFTVSRDNANNTVYLQMSSLRPDDTGLYYCAANPRRATTDYTQYAYWGQGTQVTVSS

Experiments:
[1] = target: human IGF-1R on BaF3 cells overexpressing human IGF-1R (human) (UniProt P08069); assay: cell-based or functional assay
[2] = target: T1, recombinant mouse IGF-1R-his (mouse, UniProt Q60751 31-933); assay: ELISA, coated antigen 5 µg/mL
T1 construct: not shown: his tag
Procedure: (§1) Recombinant human, monkey and mouse IGF-1R-his antigens and human insulin receptor proteins (5 μg/mL) were added to a 96-well plate for coating overnight at 4° C. The plate was washed with PBS, and then was blocked with 1% casein at room temperature for 1 h. The nanobody-Fc fusion proteins were diluted to 2 μg/mL with 0.1% BSA/PBS, added to the antigen-coated 96-well plate, and incubated at room temperature for 1 hour. The plate was washed three times with 0.1% PBST, horseradish peroxidase-labeled anti-human Fc tag antibodies (anti-human IgG-HRP, Abcam ab6759, 1:5,000, containing 1% casein) were added and incubated at room temperature for 30 min, and the plate was washed three times with 0.1% PBST. A TMB substrate solution (Thermo, 34028) was added for color development, and the OD₄₅₀ was read using a microplate reader.

[3] = target: T2, human insulin receptor protein (human, UniProt P06213-2 28-944, limits assumed); assay: ELISA, coated antigen 5 µg/mL
T2 construct: also called human insulin receptor proteins
Procedure: as §1

[4] = target: T3, recombinant human IGF-1R-his (human, UniProt P08069 31-932); assay: ELISA, coated hIGF-1R-his
T3 construct: Recombinant his-tagged protein; also called hIGF-1R-his; hIGF1R-his; not shown: his tag
Procedure: Recombinant human IGF-1R-his antigens (2 μg/mL) were added to a 96-well plate for coating overnight at 4° C. The plate was washed three times with PBST, and then was blocked with PBST containing 5% skimmed milk powder at room temperature for 2 h. The blocking solution was discarded, the plate was washed three times with PBST, and then 30 μL of nanobody-Fc fusion proteins of different concentrations were added and incubated at room temperature for 1 h. The plate was washed 3 times with PBST, horseradish peroxidase-labeled anti-human Fc antibodies (abcam, ab97225) were added at 30 μL/well and incubated at room temperature for 1 h, and the plate was washed 3 times with PBST. TMB substrate solution was added at 30 μL/well for color development in the dark for 5-30 min, 30 μL of 2 M H₂SO₄ was added to terminate the reaction, and the OD₄₅₀ was read using a microplate reader. A curve was fit and the EC₅₀ value was calculated using Graphpad Prism software.

[5] = target: T3, recombinant human IGF-1R-his; assay: competition ELISA, coated hIGF-1R-his, competitor IGF-2 (N-Avi & N-Fc)
Procedure: (§2) Recombinant human IGF-1R-his antigens (5 μg/mL) were added to a 96-well plate for coating overnight at 4° C. The plate was washed 4 times with 1×TBST, and then was blocked with 2% BSA at 37° C. for 1.5 h. The plate was washed four times with 1×TBST. A volume of 50 μL of biotinylated IGF-1-Fc (2.5 μg/mL) or IGF-2 (N-Avi & N-Fc 4 μg/mL), and 50 μL of nanobody-Fc fusion proteins of different concentrations (with a starting concentration of 10 μg/mL, 2-fold serially diluted) were added to the 96-well plate and incubated at 37° C. for 1 h. The plate was washed 4 times with 1×TBST, horseradish peroxidase-labeled Streptavidin (Thermo, 21126) was added and incubated at 37° C. for 1 h, and the plate was washed 4 times with 1×TBST. TMB substrate solution was added at 200 μL/well for color development in the dark for 20 min, 50 μL of 1 M H₂SO₄ was added to terminate the reaction, and the OD₄₅₀ was read using a microplate reader. A curve was fit and the IC₅₀ value was calculated using Graphpad Prism software.

[6] = target: T3, recombinant human IGF-1R-his; assay: competition ELISA, coated hIGF-1R-his, competitor biotinylated IGF-1-Fc
Procedure: as §2

[7] = target: T3, recombinant human IGF-1R-his; assay: SPR (BIAcore), hIGF-1R-his on CM5 chip, Test 1
Procedure: The affinity of the nanobody fusion proteins to recombinant human IGF-1R was detected using a BIAcore instrument. […] The flow rate was set to 10 μL/min. The chip activation time of a mixture of EDC and NHS was the default value of 420 s. The recombinant human IGF-1R-his was coupled to 800 RU on a CM5 chip under the preset coupling mode, and unbound activated groups were blocked with ethanolamine. Two-fold serially diluted nanobody-Fc fusion proteins (five concentrations of each fusion protein were detected) were injected sequentially at a flow rate of 50 μL/min at 25° C., with an association time of 120 s and a dissociation time of 600 s. A curve was fit with a 1:1 Langmuir binding model using the BIAcore T200 analysis software to determine kinetic constants such as the association rate constant, the dissociation rate constant, and the association dissociation constant.

[8] = target: T3, recombinant human IGF-1R-his; assay: ELISA, coated hIGF-1R-his; remark: listed apart in the source
Procedure: The binding activity of the nanobody-Fc fusion proteins obtained after two rounds of mutant construction with the antigen proteins (recombinant human IGF-1R-His) was detected by an ELISA method: 2 μg/mL recombinant human IGF1R-His antigen proteins were added to a 96-well ELISA plate, at 30 μL/well, for coating overnight at 4° C. The plate was washed three times with PBST. PBS containing 5% skim milk powder was added for blocking at room temperature for 2 h. The plate was washed three times with PBST. The nanobody-Fc fusion proteins were serially diluted 3-fold, and the nanobody-Fc fusion proteins of different concentrations were added to each well at 30 μL/well and incubated at room temperature for 1 h. The plate was washed three times with PBST, and horseradish peroxidase-labeled anti-human Fc antibodies were added at 30 μL/well and incubated at room temperature for 50 min. The plate was washed three times with PBST. TMB substrate solution was added at 30 μL/well for color development in the dark for 1-5 min, 30 μL of 2 M hydrochloric acid was added to terminate the reaction, and the OD₄₅₀ was read using a microplate reader. Curve fitting was conducted and the EC₅₀ value was calculated using Graphpad Prism software.

[9] = target: T3, recombinant human IGF-1R-his; assay: competition ELISA, coated hIGF-1R-his, competitor IGF-1-Fc 1.25 µg/mL
Procedure: Recombinant human IGF-1R-his antigens (5 μg/mL) were added to a 96-well plate for coating overnight at 4° C. The plate was washed with PBS, and then was blocked with 1% casein at room temperature for 1 h. The VHH samples were diluted 2-fold serially with 0.1% BSA/PBS, with a starting concentration of 20 μg/mL. […] The plate was washed three times with 0.1% PBST, horseradish peroxidase-labeled anti-human Fc tag antibodies (anti-human IgG-HRP, Abcam ab6759, 1:5,000, containing 1% casein) were added and incubated at room temperature for 30 min, and the plate was washed three times with 0.1% PBST. A TMB substrate solution (Thermo, 34028) was added for color development, the OD₄₅₀ was read using a microplate reader, and a curve was fit and the EC₅₀ value was calculated using Graphpad Prism software.

T3 sequence (P08069 31-932 limits assumed): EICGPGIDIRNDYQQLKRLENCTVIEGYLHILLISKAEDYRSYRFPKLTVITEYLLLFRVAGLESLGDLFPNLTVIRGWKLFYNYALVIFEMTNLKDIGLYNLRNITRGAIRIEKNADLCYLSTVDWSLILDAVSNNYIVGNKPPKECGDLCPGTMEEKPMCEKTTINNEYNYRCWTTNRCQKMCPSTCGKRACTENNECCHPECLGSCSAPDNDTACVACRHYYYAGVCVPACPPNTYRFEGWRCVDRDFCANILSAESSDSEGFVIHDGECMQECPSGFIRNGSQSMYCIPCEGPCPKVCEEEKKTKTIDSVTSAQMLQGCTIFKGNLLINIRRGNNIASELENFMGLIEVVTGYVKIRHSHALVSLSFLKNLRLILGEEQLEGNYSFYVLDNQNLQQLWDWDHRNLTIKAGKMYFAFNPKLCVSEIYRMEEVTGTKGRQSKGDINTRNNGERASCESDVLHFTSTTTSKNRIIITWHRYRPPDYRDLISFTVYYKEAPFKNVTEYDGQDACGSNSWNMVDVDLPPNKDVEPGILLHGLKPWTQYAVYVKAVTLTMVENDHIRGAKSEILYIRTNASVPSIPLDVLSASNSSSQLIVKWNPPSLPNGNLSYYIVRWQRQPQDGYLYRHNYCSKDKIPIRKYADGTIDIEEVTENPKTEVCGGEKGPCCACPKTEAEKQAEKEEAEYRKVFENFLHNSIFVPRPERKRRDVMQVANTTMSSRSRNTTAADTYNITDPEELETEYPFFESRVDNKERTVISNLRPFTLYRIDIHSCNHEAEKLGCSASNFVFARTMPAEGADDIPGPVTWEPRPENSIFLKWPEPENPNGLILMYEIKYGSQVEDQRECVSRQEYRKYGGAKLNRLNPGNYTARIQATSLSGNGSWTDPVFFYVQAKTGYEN
Chain of human IGF-1R on BaF3 cells overexpressing human IGF-1R (human) (P08069 31-1367): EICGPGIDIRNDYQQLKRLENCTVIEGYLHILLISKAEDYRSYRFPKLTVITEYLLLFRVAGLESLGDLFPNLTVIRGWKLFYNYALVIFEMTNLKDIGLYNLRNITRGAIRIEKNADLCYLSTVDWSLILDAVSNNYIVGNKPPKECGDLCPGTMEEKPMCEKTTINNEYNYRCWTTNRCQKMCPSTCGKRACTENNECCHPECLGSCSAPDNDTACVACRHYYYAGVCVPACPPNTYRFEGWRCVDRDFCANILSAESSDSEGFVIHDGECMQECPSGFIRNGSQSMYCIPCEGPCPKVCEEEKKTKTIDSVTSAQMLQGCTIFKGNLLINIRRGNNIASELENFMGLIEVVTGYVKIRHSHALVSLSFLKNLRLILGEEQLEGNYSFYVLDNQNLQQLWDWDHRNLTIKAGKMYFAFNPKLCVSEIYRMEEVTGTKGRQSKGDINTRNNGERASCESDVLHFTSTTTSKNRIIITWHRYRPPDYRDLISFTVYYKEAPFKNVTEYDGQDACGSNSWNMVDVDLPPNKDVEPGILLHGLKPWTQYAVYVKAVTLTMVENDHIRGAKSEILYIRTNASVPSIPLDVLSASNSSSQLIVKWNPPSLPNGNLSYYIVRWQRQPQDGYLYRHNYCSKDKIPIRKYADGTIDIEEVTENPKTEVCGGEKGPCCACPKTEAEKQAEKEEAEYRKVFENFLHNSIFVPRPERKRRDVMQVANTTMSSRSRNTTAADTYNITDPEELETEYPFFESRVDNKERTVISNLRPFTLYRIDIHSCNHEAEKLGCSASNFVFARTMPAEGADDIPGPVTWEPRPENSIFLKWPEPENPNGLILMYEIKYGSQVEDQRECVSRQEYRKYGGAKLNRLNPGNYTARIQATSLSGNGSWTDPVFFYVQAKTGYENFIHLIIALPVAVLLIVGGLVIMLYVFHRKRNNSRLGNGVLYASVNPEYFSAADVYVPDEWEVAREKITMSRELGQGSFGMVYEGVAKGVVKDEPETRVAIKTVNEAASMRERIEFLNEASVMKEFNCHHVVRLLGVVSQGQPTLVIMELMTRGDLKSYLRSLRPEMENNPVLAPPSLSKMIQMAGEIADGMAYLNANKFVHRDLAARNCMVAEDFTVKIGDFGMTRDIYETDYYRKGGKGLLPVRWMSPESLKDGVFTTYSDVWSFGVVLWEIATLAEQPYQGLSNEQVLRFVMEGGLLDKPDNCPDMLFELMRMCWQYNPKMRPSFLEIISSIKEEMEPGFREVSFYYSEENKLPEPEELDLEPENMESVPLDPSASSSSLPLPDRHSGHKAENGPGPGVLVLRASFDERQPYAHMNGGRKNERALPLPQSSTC
T2 sequence (P06213 other isoform, or with tags, fused parts or gaps limits assumed): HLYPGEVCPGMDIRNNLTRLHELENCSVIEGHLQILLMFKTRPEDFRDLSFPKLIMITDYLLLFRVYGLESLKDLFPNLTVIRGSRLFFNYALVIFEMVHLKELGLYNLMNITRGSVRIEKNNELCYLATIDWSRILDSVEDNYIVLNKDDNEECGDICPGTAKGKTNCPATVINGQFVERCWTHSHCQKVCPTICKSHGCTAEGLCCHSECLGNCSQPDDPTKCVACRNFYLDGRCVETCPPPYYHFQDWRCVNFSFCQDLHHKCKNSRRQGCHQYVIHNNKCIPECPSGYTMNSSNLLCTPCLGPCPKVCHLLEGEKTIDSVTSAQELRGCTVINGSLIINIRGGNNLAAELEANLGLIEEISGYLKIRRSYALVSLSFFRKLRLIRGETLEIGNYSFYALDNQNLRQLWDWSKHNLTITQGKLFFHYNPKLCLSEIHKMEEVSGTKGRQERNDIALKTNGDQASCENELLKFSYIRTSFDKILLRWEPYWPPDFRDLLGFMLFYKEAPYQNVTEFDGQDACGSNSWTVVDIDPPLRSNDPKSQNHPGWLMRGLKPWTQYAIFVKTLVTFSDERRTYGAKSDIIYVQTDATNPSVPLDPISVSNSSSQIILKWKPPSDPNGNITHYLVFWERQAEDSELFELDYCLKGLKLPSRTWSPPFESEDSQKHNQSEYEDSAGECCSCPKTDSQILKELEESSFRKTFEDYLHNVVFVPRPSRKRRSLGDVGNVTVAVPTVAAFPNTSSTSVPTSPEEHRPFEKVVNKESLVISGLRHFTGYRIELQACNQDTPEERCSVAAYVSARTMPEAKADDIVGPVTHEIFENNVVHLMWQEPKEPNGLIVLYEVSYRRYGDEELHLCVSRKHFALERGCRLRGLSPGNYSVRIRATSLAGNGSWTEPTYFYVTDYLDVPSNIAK
T1 sequence (Q60751 31-933 limits assumed): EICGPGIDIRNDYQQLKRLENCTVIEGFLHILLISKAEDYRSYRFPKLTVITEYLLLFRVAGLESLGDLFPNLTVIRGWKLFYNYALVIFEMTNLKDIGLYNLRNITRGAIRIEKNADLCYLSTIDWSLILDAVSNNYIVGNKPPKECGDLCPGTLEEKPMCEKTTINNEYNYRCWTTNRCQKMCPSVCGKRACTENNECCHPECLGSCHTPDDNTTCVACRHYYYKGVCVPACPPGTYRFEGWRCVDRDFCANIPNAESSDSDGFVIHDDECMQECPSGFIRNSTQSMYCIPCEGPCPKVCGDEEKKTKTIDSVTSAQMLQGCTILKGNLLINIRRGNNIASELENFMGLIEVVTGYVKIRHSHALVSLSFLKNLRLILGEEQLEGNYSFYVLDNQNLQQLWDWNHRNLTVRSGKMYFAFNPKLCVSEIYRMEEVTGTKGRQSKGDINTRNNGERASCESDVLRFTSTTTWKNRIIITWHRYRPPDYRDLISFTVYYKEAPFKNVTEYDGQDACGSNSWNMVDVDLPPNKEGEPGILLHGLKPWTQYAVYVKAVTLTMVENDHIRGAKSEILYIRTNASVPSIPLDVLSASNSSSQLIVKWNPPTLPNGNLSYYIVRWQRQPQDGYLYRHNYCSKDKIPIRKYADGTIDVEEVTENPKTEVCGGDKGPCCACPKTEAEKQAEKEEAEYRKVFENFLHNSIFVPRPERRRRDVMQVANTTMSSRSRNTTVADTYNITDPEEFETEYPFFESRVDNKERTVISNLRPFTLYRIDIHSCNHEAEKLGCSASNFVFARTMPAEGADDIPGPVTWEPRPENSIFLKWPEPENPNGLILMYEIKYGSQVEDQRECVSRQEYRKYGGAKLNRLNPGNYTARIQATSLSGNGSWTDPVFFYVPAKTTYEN

| Molecule | EC50 [4] [µg/mL] | Kd [7] [pM] | koff [7] [s⁻¹] | kon [7] [M⁻¹ s⁻¹] | EC50 [8] | also measured |
| --- | --- | --- | --- | --- | --- | --- |
| Teprotumumab (antibody) |  |  |  |  |  | IC50, inhibition of IGF-1-induced proliferation of BaF3 cells overexpressing human IGF-1R [1]: 0.121 µg/mL |
| B1 | 0.0327 |  |  |  |  | binding result [2]: no binding (tested: 2 µg/mL); binding result [3]: no binding (tested: 2 µg/mL); IC50 [5]: 0.177 µg/mL; IC50 [6]: 0.236 µg/mL |
| B2 | 0.0369 | 31700 | 0.00211 | 66800 |  |  |
| B3 |  | 1850 | 0.00207 | 1.12e+06 | 0.00122 µg/mL |  |
| B4 |  | 1150 | 0.00123 | 1.07e+06 | 0.0017 µg/mL |  |
| B5 |  | 101 | 0.000465 | 4.62e+06 | 0.00184 µg/mL |  |
| B6 | 0.0652 |  |  |  |  |  |
| B7 | 0.0925 |  |  |  |  |  |
| B8 | 0.0828 |  |  |  |  | IC50 [5]: 0.152 µg/mL; IC50 [6]: 0.227 µg/mL |
| B9 |  | 86.2 | 0.000274 | 3.18e+06 | 52 pM | IC50, inhibition of IGF-1-induced proliferation of BaF3 cells overexpressing human IGF-1R [1]: 0.00816 µg/mL; IC50, inhibition of IGF-1-induced proliferation of BaF3 cells overexpressing human IGF-1R ([1]; record 2): 0.00851 µg/mL; IC50 [5]: 0.237 µg/mL; IC50 [6]: 0.269 µg/mL |
| B10 | 0.0929 |  |  |  |  |  |
| B11 |  |  |  |  |  | IC50 [9]: 0.24 µg/mL |
| B12 |  |  |  |  |  | IC50 [9]: 0.7 µg/mL |
